{
  "source": "patent US20230149516A1",
  "about": "“USE OF PEPTIDYLGLYCINE ALPHA-AMIDATING MONOOXYGENASE (PAM) FOR THERAPEUTIC PURPOSE” (PAM THERAGNOSITICS GMBH, priority 2020, published 2023)",
  "key": {"bio-ADM": {"test_system": "bio-ADM", "experiment": "Circulating bio-ADM concentration in rats after intravenous injection of PAM, ascorbate or both", "assay_type": "in vivo, Wistar rats"}, "endogenous human ADM-Gly": {"test_system": "endogenous human ADM-Gly", "experiment": "Conversion of endogenous ADM-Gly to bio-ADM in human Li-Heparin plasma with exogenous recombinant PAM", "assay_type": "biochemical", "settings": "37° C.", "excerpt": "ADM-Gly was quantified as based on Weber et al. (Weber et al. 2017. JALM 2(2): 222-233) for bioactive ADM with the following modifications: the tracer-antibody used for ADM-Gly detection, labelled with MACN-acridinium-NHS, was directed to the C-terminal glycine of ADM-Gly. The assay was calibrated with synthetic ADM-Gly. The limit of detection (LOD) was 10 pg/mL of ADM-Gly. Cross-reactivity of antibody directed to the C-terminal glycine of ADM with bio-ADM was in the range between 6 and 50% in a concentration dependent manner. All determined ADM-Gly concentrations were corrected for cross-reactivity as follows: For each ADM-Gly quantification additional quantification of bio-ADM in corresponding samples was performed using the Sphingotest® bio-ADM immunoassay. […] The determined signal (RLU) was used to calculate the false-positive ADM-Gly concentration (pg/mL) using the ADM-Gly calibration curve. This concentration was subtracted from the initially determined ADM-Gly concentration.\nIn a further experiment we investigated the formation of bio-ADM from endogenous ADM-Gly by native human plasma PAM and the effect of addition of exogenous recombinant human PAM. […] The concentration of bio-ADM in the reaction sample was quantified using the Sphingotest® bio-ADM immunoassay as described recently (Weber et al. 2017. JALM 2(2): 222-233). […]"}, "[1]": {"experiment": "Half-life of recombinant PAM in rats (example 10, one-phase decay model)", "assay_type": "in vivo", "settings": "example 10, single i.v. dose, FIG. 22", "method": "FIG. 22: Half-life of recombinant PAM in rats, determined from one-phase decay model.\nEndotoxin-free, recombinant PAM (SinoBiological) was buffer exchanged into sterile phosphate buffer saline (PBS, Dulbecco) and adjusted to 50 μg/mL. Sterile ascorbate solution for injection (200 mg/mL, vitamin C 1000, WÖRWAG Pharma) was purchased in a local pharmacy and adjusted under sterile conditions with PBS to 40 mg/mL. For combined injections of PAM and ascorbate, the compounds were prepared separately in equal volumes (100 μg/mL or 80 mg/mL for PAM and ascorbate, respectively). Both compounds were combined directly prior to injection to result in concentrations of 50 μg/mL for PAM and 40 mg/mL for ascorbate. Sterile PBS was used as placebo. All samples were stored at −80° C. until use. Animals, male Wistar rats, 2-3 month of age, were assigned into 4 groups (placebo, ascorbate, PAM, PAM+ascorbate) with 3 animals per group. Each animal in the individual group received 500 μl of the respective compound intravenously as a single dose injection. Blood sampling was performed as Li-Heparin 30 min prior to and 15, 30, 45, 60, 120, 180, 240 and 300 min post injection. PAM activities were determined as described in example 3."}, "PAM activity": {"test_system": "PAM activity", "experiment": "Circulating PAM activity in rats after intravenous injection of PAM, ascorbate or both, measured without exogenous ascorbate", "assay_type": "in vivo, Wistar rats"}, "circulating ADM-Gly": {"test_system": "circulating ADM-Gly", "experiment": "bio-ADM increase after administration of recombinant human PAM in rats (example 9)", "assay_type": "in vivo, Wistar-rat", "settings": "intravenously administered recombinant human PAM", "method": "Two animals (Wistar-rat, male, 2-3 month of age) received 17 μg of recombinant human PAM (see example 1) as a single dose in a total volume of 500 μl (in phosphate-buffered saline). One control-animal received 500 μl of PBS. Blood sampling (Li-Heparin Plasma) was carried out 30 min prior to application and 30 min, 2 h, 4 h, 8 h, 24 h and 48 h, respectively, after application."}},
  "data": [
    {"molecule": "recombinant human PAM: Recombinant human peptidylglycine alpha-amidating monooxygenase, aa 21-834, SEQ ID No. 10 (Example 1); Example 10 used endotoxin-free recombinant PAM from SinoBiological (protein, listed as Homo sapiens) SPLSVFKRFKETTRPFSNECLGTTRPVVPIDSSDFALDIRMPGVTPKQSDTYFCMSMRIPVDEEAFVIDFKPRASMDTVHHMLLFGCNMPSSTGSYWFCDEGTCTDKANILYAWARNAPPTRLPKGVGFRVGGETGSKYFVLQVHYGDISAFRDNNKDCSGVSLHLTRLPQPLIAGMYLMMSVDTVIPAGEKVVNSDISCHYKNYPMHVFAYRVHTHHLGKVVSGYRVRNGQWTLIGRQSPQLPQAFYPVGHPVDVSFGDLLAARCVFTGEGRTEATHIGGTSSDEMCNLYIMYYMEAKHAVSFMTCTQNVAPDMFRTIPPEANIPIPVKSDMVMMHEHHKETEYKDKIPLLQQPKREEEEVLDQGDFYSLLSKLLGEREDVVHVHKYNPTEKAESESDLVAEIANVVQKKDLGRSDAREGAEHERGNAILVRDRIHKFHRLVSTLRPPESRVFSLQQPPPGEGTWEPEHTGDFHMEEALDWPGVYLLPGQVSGVALDPKNNLVIFHRGDHVWDGNSFDSKFVYQQIGLGPIEEDTILVIDPNNAAVLQSSGKNLFYLPHGLSIDKDGNYWVTDVALHQVFKLDPNNKEGPVLILGRSMQPGSDQNHFCQPTDVAVDPGTGAIYVSDGYCNSRIVQFSPSGKFITQWGEESSGSSPLPGQFTVPHSLALVPLLGQLCVADRENGRIQCFKTDTKEFVREIKHSSFGRNVFAISYIPGLLFAVNGKPHFGDQEPVQGFVMNFSNGEIIDIFKPVRKHFDMPHDIVASEDGTVYIGDAHTNTVWKFTLTEKLEHRSVKKAGIEVQEIKEAEAVVGS", "values": [
      {"measurement": "bio-ADM concentration elevated by the factor (normalized to placebo)", "setting": "bio-ADM; after 15 min", "value": 1.8},
      {"measurement": "bio-ADM concentration elevated by the factor (normalized to placebo)", "setting": "bio-ADM; after 30 min", "value": 2.4},
      {"measurement": "bio-ADM concentration elevated by the factor (normalized to placebo)", "setting": "bio-ADM; after 45 min", "value": 2},
      {"measurement": "bio-ADM concentration elevated by the factor (normalized to placebo)", "setting": "bio-ADM; after 60 min", "value": "not significantly different"},
      {"measurement": "bio-ADM concentration compared to the Placebo group", "setting": "bio-ADM; after 120 minutes", "value": "not significantly different"},
      {"measurement": "time of maximum bio-ADM increase", "setting": "bio-ADM; intravenously administered, example 10", "value": 30, "unit": "min"},
      {"measurement": "increase of the bio-ADM synthesis rate from endogenous human ADM-Gly (averaged factor)", "setting": "endogenous human ADM-Gly; 500 ng/ml exogenous recombinant PAM (approximate doubling of PAM concentration) in human Li-Heparin plasma pool with high ADM-Gly, at each time-point, vs native PAM alone", "value": 1.8},
      {"measurement": "ADM-Gly consumption / shift of ADM-Gly/bio-ADM ratio", "setting": "endogenous human ADM-Gly; 500 ng/ml exogenous recombinant PAM in human Li-Heparin plasma", "value": "faster shift of the ADM-Gly/bio-ADM ratio towards bio-ADM"},
      {"measurement": "half-life of recombinant human PAM in rats", "setting": "[1]", "value": 52.7, "unit": "min"},
      {"measurement": "maximal elevation of PAM activity compared to placebo group (factor)", "setting": "PAM activity; 15 minutes past injection", "value": 6},
      {"measurement": "PAM activity compared to placebo group", "setting": "PAM activity; 120 min past injection", "value": "not significantly different"},
      {"measurement": "time of maximal elevation of PAM activity past injection", "setting": "PAM activity; single i.v. injection", "value": 15, "unit": "min"},
      {"measurement": "elevation of circulating PAM activity", "setting": "PAM activity; single i.v. injection of 500 μl (PAM 50 μg/mL, ascorbate 40 mg/mL), vs placebo", "value": "highly significant elevation"},
      {"measurement": "time PAM activity remained elevated after injection", "setting": "PAM activity; single i.v. injection, significantly elevated for PAM and the combination", "value": 60, "unit": "min"},
      {"measurement": "time of maximum bio-ADM increase", "setting": "circulating ADM-Gly", "value": 4, "unit": "h"}
    ]}
  ]
}
